The record followed here is article PMC12274480 (Communications Chemistry, 2025).

The assay deals with Nn8 (fraction 8 from N. nivea venom) (Naja nivea, UniProt P01390, biotin (site not stated)). In words: BLI. A general note: BLI is a label-free optical method that tracks binding on a fibre tip over time.
Chain of Nn8 (fraction 8 from N. nivea venom) (P01390 whole entry, looked up): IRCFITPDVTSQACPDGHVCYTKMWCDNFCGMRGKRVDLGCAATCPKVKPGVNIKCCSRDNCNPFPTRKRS

B1: TPL1158_01_C09 (VHH)
VHH: QVQLQESGGGLVQPGGSLRLSCAASGDIGGLKQMGWYRQAPGHQRELVAVKRNENEANYTESVKGRFTISRDNARKMVYLQMNSLKPEDTAVYYCNAVVGNWYTSGYYEDTYWGQGTQVTVSS
Molecule B1 came in with a Kd of 63 nM.

What is called Kd is the free concentration of one partner at which half of the binding sites on the other are occupied at equilibrium, for simple one-to-one binding. Low values mean tighter binding, high ones weaker binding.
